The target of this assay is T1, recombinant mouse LRP5-His chimera (mouse, UniProt Q91VN0 31-1383).
T1 construct: extracellular domain; also called ECD of mouse LRP5; not shown: His tag
T1 sequence (looked up): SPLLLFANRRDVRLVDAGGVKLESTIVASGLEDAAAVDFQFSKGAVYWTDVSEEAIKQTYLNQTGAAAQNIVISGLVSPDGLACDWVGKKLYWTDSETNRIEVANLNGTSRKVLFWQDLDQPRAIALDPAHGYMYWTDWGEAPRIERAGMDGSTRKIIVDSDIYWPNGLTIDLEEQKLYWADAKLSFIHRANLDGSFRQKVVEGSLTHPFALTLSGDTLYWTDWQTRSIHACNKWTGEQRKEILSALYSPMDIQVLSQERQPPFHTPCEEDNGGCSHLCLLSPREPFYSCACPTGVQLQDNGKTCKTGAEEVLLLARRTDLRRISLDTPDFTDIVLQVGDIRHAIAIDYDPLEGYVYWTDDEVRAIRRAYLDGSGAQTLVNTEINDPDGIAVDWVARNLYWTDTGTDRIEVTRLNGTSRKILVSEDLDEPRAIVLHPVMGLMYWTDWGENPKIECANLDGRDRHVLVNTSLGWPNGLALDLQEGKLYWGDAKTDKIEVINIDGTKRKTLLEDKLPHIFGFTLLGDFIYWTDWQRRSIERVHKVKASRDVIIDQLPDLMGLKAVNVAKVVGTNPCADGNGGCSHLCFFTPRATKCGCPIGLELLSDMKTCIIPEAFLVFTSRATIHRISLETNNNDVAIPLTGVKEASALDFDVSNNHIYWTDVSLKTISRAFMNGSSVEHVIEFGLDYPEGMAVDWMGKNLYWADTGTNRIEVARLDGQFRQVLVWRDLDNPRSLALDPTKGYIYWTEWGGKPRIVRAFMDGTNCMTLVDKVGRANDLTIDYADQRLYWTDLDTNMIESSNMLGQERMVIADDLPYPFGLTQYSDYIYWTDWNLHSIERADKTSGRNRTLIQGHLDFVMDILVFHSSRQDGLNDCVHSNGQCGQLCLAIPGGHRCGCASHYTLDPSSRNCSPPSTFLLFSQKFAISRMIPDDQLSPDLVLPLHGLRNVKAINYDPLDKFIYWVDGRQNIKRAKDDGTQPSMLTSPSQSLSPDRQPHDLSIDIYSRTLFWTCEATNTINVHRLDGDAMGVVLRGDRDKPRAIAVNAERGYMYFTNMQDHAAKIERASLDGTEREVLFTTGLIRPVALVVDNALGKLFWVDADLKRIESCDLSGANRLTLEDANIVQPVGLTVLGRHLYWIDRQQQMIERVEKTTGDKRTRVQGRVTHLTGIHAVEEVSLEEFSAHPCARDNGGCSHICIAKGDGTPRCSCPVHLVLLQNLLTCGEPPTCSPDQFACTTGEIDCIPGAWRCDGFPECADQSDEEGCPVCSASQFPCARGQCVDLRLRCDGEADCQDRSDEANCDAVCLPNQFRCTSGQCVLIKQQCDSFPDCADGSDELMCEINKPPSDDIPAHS
Put plainly: single-point ELISA, coated antigen, purified Fab or IgG1, anti-kappa-HRP. As to the method: FIGS. 1A and 1B show sixteen (16) anti-LRP antibodies. (A) The amino acid sequences of the complementarity determining regions (CDR) of the heavy (H) and the light (L) chains are presented. The antibodies were grouped into unique epitopes as determined by competitive ELISAs. (B) Single-point ELISAs were performed on 96-well Maxisorb immune plates coated with ECD's of mouse LRP5, mouse LRP6 and human LRP6 chimeras. The plates were incubated with the purified Fab or IgG1 at the concentrations indicated followed by incubation with horseradish peroxidase (HRP)-conjugated anti-kappa antibody. The wells were washed eight times followed by incubation with 3,3′,5,5′-tetramethylbenzidine/H₂O₂ peroxidase (TMB) substrate for 5-10 min. The reaction was stopped by adding 1M H₃PO₄ and the absorbance was measured spectrometrically at 450 nm in a microtiter plate reader. FIG. 1A discloses “SSVA” as SEQ ID NO: 34, and “SASSLYS” as SEQ ID NO: 35, as well as SEQ ID NOS 36-49, 51, 44, 2-4, 4, 5-7, 5, 4, 5, 8-10, 4, 52, 55, 11-16, 15, 15, 13, 17-20, 13, 53, 56, 21-23, 22, 24-33, 54, 57, respectively, in order of columns.
The full length IgG1s and the antibody fragments (Fabs) were purified and a single-point ELISA was done to determine the specificity of the antibodies. […] A multipoint competitive ELISA was used to determine the relative affinities of the antibodies to the recombinant antigen.

B1: LRP5-H5 (antibody, V domains shown)
VH: EVQLVESGGGLVQPGGSLRLSCAASGFNLSYSSIHWVRQAPGKGLEWVASISSSYGSTSYADSVKGRFTISADTSKNTAYLQMNSLRAEDTAVYYCARGYWAIDYWGQGTLVTVSS
VL: DIQMTQSPSSLSASVGDRVTITCRASQSVSSAVAWYQQKPGKAPKLLIYSASSLYSGVPSRFSGSRSGTDFTLTISSLQPEDFATYYCQQPVGHYGYPITFGQGTKVEIKR
notes: Fab-phage in the screen
Turning to B1, the binding result was “binds”.

For the origin of these results see patent US20230183336A1 (MODMAB THERAPEUTICS, published 2023).
